Data taken from patent publication US20260060994A1, “GLYCOSYLATED COMPOSITIONS AND METHODS OF USE” (Cy Biopharma AG, priority 2023, published 2026).

B1: GLY163: glycosyltransferase (UGT), SEQ ID NO: 22 (protein)
chain: MTGELIFIPMPSLSHIASTMEIAKLLVHRDDRLSITVLLISSQYTTSITTYINSLIASSDYDRIRFIHLPELDSEEEPKRPFMSVIDDNKPIVKEAVTNLALSFDPSHRLAGFVIDMFCVGMIEVADELGLPSYPFFTSSTSFLALQFHVQTLADEEEVDITEFKNSDVMLPIPGLVNPLPAKTILPSAMLNKDWLPYVLNGARGFRKTKGIMVNSFAEIESNAVTSLSNSTVPPVYTVGPIINFKGDGQDSDTCTAHKYSNIMTWLDDQPPSSVLFLCFGSLGSFDEEQVKEIARALEGSGHRFLWSLRRPPPKDKTMSFPTEYENFEEVLPEGFVDRTVGMGKVMGWAPQVAVLAHPSIGGFVTHCGWNSILESVWFGVPMAAWPLYAEQQFNAFHMVVELGLAVEIKMDYRKDYAILGLQEERVSAEVIEKGIRCLMEEDNDARKKVKEMSEISRKALMDGGSSHAVLGQFIEDVMNNISA
B2: GLY153: glycosyltransferase (UGT), SEQ ID NO: 20 (protein)
chain: MAETDSPPHVAILPSPGMGHLIPLVELAKRLVHQHNLSVTFIIPTDGSPSKAQRSVLGSLPSTIHSVFLPPVNLSDLPEDVKIETLISLTVARSLPSLRDVLSSLVASGTRVVALVVDLFGTDAFDVAREFKASPYIFYPAPAMALSLFFYLPKLDEMVSCEYSEMQEPVEIPGCLPIHGGELLDPTRDRKNDAYKWLLHHSKRYRLAEGVMVNSFIDLERGALKALQEVEPGKPPVYPVGPLVNMDSNTSGVEGSECLKWLDDQPLGSVLFVSFGSGGTLSFDQITELALGLEMSEQRFLWVARVPNDKVANATYFSVDNHKDPFDFLPKGFLDRTKGRGLVVPSWAPQAQVLSHGSTGGFLTHCGWNSTLESVVNAVPLIVWPLYAEQKMNAWMLTKDVEVALRPKASENGLIGREEIANIVRGLMEGEEGKRVRNRMKDLKDAAAEVLSEAGSSTKALSEVARKWKNHKCTQDCN
B3: GLY91: glycosyltransferase (UGT), SEQ ID NO: 12 (protein)
chain: MGKQEDAELVIIPFPFSGHILATIELAKRLISQDNPRIHTITILYWGLPFIPQADTIAFLRSLVKNEPRIRLVTLPEVQDPPPMELFVEFAESYILEYVKKMVPIIREALSTLLSSRDESGSVRVAGLVLDFFCVPMIDVGNEFNLPSYIFLTCSAGFLGMMKYLPERHREIKSEFNRSFNEELNLIPGYVNSVPTKVLPSGLFMKETYEPWVELAERFPEAKGILVNSYTALEPNGFKYFDRCPDNYPTIYPIGPILCSNDRPNLDLSERDRILKWLDDQPESSVVFLCFGSLKSLAASQIKEIAQALELVGIRFLWSIRTDPKEYASPNEILPDGFMNRVMGLGLVCGWAPQVEILAHKAIGGFVSHCGWNSILESLRFGVPIATWPMYAEQQLNAFTIVKELGLALEMRLDYVSEYGEIVKADEIAGAVRSLMDGEDVPRRKLKEIAEAGKEAVMDGGSSFVAVKRFIDGL
B4: GLY170: glycosyltransferase (UGT), SEQ ID NO: 28 (protein)
chain: MKKINLVVIPFAGVGHLVSTIEFIKRLLSRDDRFSVTILVIKSPLEHSLDPNTSPPSLPSSHPHIQFINVRSLNPPPIEVFLKSPEKYFTLYIESYKLKVKEIIVDHVLPNSAPLGGLFLDMFSTSMVDVAQELGVPSYVFLTSGAGFLGFVLYLQTRHDRGGAEFELSDIESYIPSYVNPVPSRVLPSLAFNREGGYVSFVNVARNMKKTKGIIVNTVFELESHAISSLLMDGATPPVYAVGPLIDHKGESHFRTDQAKRDKIIKWLDDQPTKSVIFLCFGSFGSFGVPQLREIAIGLEQSGARFLWSIRQAKSIFEMPIECEKPEEFLPQGFLDRTKELGMICGWTPQIEVLAHRAIGGFVSHCGWNSILESLWHGVPIVTWPLYAEQQINAFQIVKDLGLGVELRLDYRRDGGDVDVVMRDEIEKAVRYVMDGDSEVRQRVQEASEKCRKAVVEGGSSFSSIGSLIEAILANIS
B5: GLY74: glycosyltransferase (UGT), SEQ ID NO: 6 (protein)
chain: MRNVELIFIPTPTVGHLVPFLEFARRLIEQDDRIRITILLMKLQGQSHLDTYVKSIASSQPFVRFIDVPELEEKPTLGSTQSVEAYVYDVIERNIPLVRNIVMDILTSLALDGVKVKGLVVDFFCLPMIDVAKDISLPFYVFLTTNSGFLAMMQYLADRHSRDTSVFVRNSEEMLSIPGFVNPVPANVLPSALFVEDGYDAYVKLAILFTKANGILVNSSFDIEPYSVNHFLQEQNYPSVYAVGPIFDLKAQPHPEQDLTRRDELMKWLDDQPEASVVFLCFGSMARLRGSLVKEIAHGLELCQYRFLWSLRKEEVTKDDLPEGFLDRVDGRGMICGWSPQVEILAHKAVGGFVSHCGWNSIVESLWFGVPIVTWPMYAEQQLNAFLMVKELKLAVELKLDYRVHSDEIVNANEIETAIRYVMDTDNNVVRKRVMDISQMIQRATKNGGSSFAAIEKFIYDVIGIKP

Tests used:
[1] = Pharmacokinetic experiment in mice, plasma and brain, LC-MS/MS; format: in vivo, C57Bl/6J mice
Method: In a pharmacokinetic experiment in C57Bl/6J mice (3 animals per timepoint; schedule shown below) two example compounds, Cy1 (4-HO-EPT glycoside) and Cy2 (4-HO-DMT glycoside) were dosed at two different concentrations (20 mg/kg dose shown here) and the parent compounds and their de-glycosylated forms, 4-HO-EPT and psilocin (4-HO-DMT), respectively, were measured by LC-MS/MS in plasma and brain tissue samples. For comparison, psilocybin was dosed at 1.5 mg/kg orally and plasma and brain tissue concentrations of psilocin (4-HO-DMT) were measured. Samples were collected at four or five different timepoints (from 10-minutes post dosing up to 6-hours post dosing) following the test article administration.
Schedule of pharmacokinetic experiment shown below.
Results are reported in ng/mL for the concentration in plasma and in ng/g tissue for the concentration measured in brain samples.
Results: The graphs in FIG. 35, FIG. 36, FIG. 37, and FIG. 38 display the time course of concentrations of compounds as indicated. For each time point the data for the individual animals are plotted.

[2] = Glycosylation of 4-HO-MET by GLY enzymes (UDP-glucose), LC-UV/MS; format: biochemical; conditions: 0.5 mM 4-OH-MET, 1.25 mM UDP-glucose, 25% (v/v) GLY enzyme, 24 h at 30° C.; estimate from UV peak areas
Method: 4-HO-MET was dissolved in 100% (v/v) DMSO to a concentration of 10 mM. The solution was stored at −20° C. prior to use.
FastAP phosphatase (1 U/uL) from ThermoFisher Scientific (catalog no. EF0651).
GLY enzyme suspensions contain 10 mM Tris-HCl at pH7.4, 250 mM imidazole and 50% (v/v) glycerol.
(§1) The assay conditions were: • 100 mM Tris-HCl, pH 7.4 • 5 mM MgCl2 • 1 mM KCl • 1.25 mM UDP-glucose • 0.5 mM 4-OH-MET • 5% (v/v) DMSO • 0.1 U/uL Fast AP phosphatase • 25% (v/v) GLY enzyme
(§2) Incubation was 24 house at 30° C. Reactions were terminated adding 3 volumes of 75% (v/v) ethanol.
(§3) LC separation was performed using an Agligen 1290 Infinity II UHPLC equipped with a Phenomenex Kinetex XB-C18 column (1.7 um, 100 angstroms, 100×2.1 mm) and 4-HO-MET was detected by absorbance at 210 nm and 268 nm with an Agilent 1260 Infinity II DAD.
(§4) 0.1% Formic acid in water (A) and 0.1% Formic acid in acetonitrile (B) were used as the mobile phases for the elution gradient, with a flow rate of 0.4 ml/min. Retention time for 4-HO-MET using this type of instrument under these condition was 2.6 min. The system was coupled to an Ultivo Triple Quadrupole MS. To verify the presence of possible glycoside products, as SIM (Selected Ion Monitoring) method was used on the MS to analyse for the m/z 381 (theoretical mass to chart ratio of 4-HO-MET-glucoside) and m/z 219 (theoretical mass to charge ratio of 4-HO-MET).
As standard, 4-HO-MET solutions at a concentrations of 500, 250, 125, 62.5, and 31.25 uM were prepared from the 10 mM stock and used for caliboration.
A representative example of the chromatograms obtained with a wavelength of 268 nm for the standard solutions resuspended in the reaction buffer, and the corresponding MS-SIM signal, is shown in FIG. 16. The peak corresponding to 4-HO-MET is indicated.
When analyzing the GLY reactions, 30 of them gave an additional peak with retention time 2.2 min (i.e. in the expected region for a 4-HO-MET glucoside) and molecular mass compatible with the expected glucoside product, together with a corresponding decrease in substrate concentration, compared to the no-enzyme controls.
The method was repeated using various GLY enzymes to produce 4-HO-MET glucosides.
(§5) The enzymes giving the additional peak putatively corresponding to the 4-HO-MET-β-D-glucoside are listed below. […] A correct quantification of the product is not possible without a standard for the specific molecule. However, based on the assumption that the ratio area-to-concentration in the UV chromatograms will be similar to 4-HO-MET, estimates of the relative abundance for the additional peak are also given, expressed as percentage of converted 4-HO-MET. GLY enzymes hits are ranked according to their estimated conversion efficiency.

[3] = Glycosylation of 4-OH-EPT by GLY enzymes (UDP-glucose), LC-UV/MS; format: biochemical; conditions: conditions of Examples 1 and 2 repeated for 4-OH-EPT; estimate from UV peak areas
Method: as §1, §2, §3, §4, §5
The experiments described in Examples 1 and 2 above were repeated for 4-OH-EPT.
Below is the corresponding data for 4-OH-EPT.

[4] = Glycosylation of 4-OH-MiPT by GLY enzymes (UDP-glucose), LC-UV/MS; format: biochemical; conditions: conditions of Examples 1 and 2 repeated for 4-OH-MiPT; estimate from UV peak areas
Method: as §1, §2, §3, §4, §5
(§6) The experiments described in Examples 1 and 2 above were repeated for 4-OH-MiPT, 4-HO-DMT and 5-HO-DMT
Below is the corresponding data for 4-OH-MiPT.

[5] = Glycosylation of 4-OH-DMT by GLY enzymes (UDP-glucose), LC-UV/MS; format: biochemical; conditions: conditions of Examples 1 and 2 repeated for 4-HO-DMT; estimate from UV peak areas
Method: as §1, §2, §3, §4, §5, §6
(§7) Below is the corresponding data for 4-OH-DMT and 5-HO-DMT.

[6] = Glycosylation of 5-HO-DMT by GLY enzymes (UDP-glucose), LC-UV/MS; format: biochemical; conditions: conditions of Examples 1 and 2 repeated for 5-HO-DMT
Method: as §1, §2, §3, §4, §5, §6, §7

Row | Molecule | period of exposure in brain ([1]; higher doses (20 mg/kg p.o.), brain, as compared to psilocybin 1.5 mg/kg p.o.) | period of exposure in plasma ([1]; higher doses (20 mg/kg p.o.), plasma, as compared to psilocybin 1.5 mg/kg p.o.) | time to peak brain concentration ([1]; p.o. single dose, brain, as compared to the administration of psilocybin 1.5 mg/kg p.o.) | time to peak plasma concentration ([1]; p.o. single dose, plasma, as compared to the administration of psilocybin 1.5 mg/kg p.o.) | 4-OH-MET GLY % (percentage of converted 4-HO-MET) [2] [%] | 4-OH-EPT GLY % (percentage of converted 4-OH-EPT) [3] [%] | 4-OH-MiPT GLY % (percentage of converted 4-OH-MiPT) [4] [%] | 4-OH-DMT GLY % [5] [%] | 5-OH-DMT GLY % [6] [%]
1 | CCCN(CC)CCc1c[nH]c2cccc(O[C@@H]3O[C@H](CO)[C@@H](O)[C@H](O)[C@H]3O)c12 [Cy1, 4-HO-EPT glycoside] | extended period of exposure | extended period of exposure | extended | extended | – | – | – | – | –
2 | B1 | – | – | – | – | 40.5 | 46.3 | 61.6 | 10.6 | –
3 | B2 | – | – | – | – | 6 | – | – | – | 5
4 | B3 | – | – | – | – | 20.7 | 5.4 | – | – | 1
5 | B4 | – | – | – | – | 31.6 | 23.4 | 38.8 | 15.7 | –
6 | B5 | – | – | – | – | 36 | 7 | 19.3 | 22.4 | –
